The target of the experiment is T1, Noggin (UniProt Q13253 28-232, limits assumed).
T1 sequence (looked up): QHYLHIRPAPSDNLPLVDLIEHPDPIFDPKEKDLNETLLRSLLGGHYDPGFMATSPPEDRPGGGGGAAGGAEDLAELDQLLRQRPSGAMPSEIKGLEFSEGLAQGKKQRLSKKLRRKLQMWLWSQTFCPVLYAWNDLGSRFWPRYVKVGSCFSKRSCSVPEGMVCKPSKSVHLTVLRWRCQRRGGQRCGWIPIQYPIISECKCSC
Description: size-exclusion chromatography of the AB204 and Noggin mixture. On the technique in general: Size exclusion chromatography separates by hydrodynamic size, large species first.

Data on one molecule can be found in patent US20210395322A1 (OSR, published 2021).

B1: AB204 (ligand)
chain: MQAKHKQRKRLKSSCKRHPLYVDFSDVGWNDWIIAPSGYHANYCDGECPFPLADHLNSTNHAIVQTLVNSVNSKIPKACCVPTKLRPMSMLYYDDGQNIIKKDIQNMIVEECGCS
notes: also called Noggin-insensitive chimera AB204
Take B1: the binding result is listed as “no binding”.
